According to paper PMC3992431 (Current biology : CB, 2014):
Like-named read-outs stand apart in the source and are kept apart here.

Tests used:
actin filaments [1] = target: T1, actin filaments (rabbit, UniProt P68135 1-377); experiment: co-sedimentation
actin filaments [2] = target: T1, actin filaments; experiment: co-sedimentation; remark: listed apart in the source
[3] = target: the molecule itself; experiment: two-color TIRF microscopy
[4] = target: the molecule itself; experiment: two-color TIRF microscopy; remark: listed apart in the source

B1: INF2-FF (domain or fragment)
chain: not shown
Actin filaments [1]
  fold lower affinity than INF2-FFC: 5 fold

B2: INF2-FFC (domain or fragment)
chain: not shown
Actin filaments [2]
  stoichiometry N: 1 INF2 monomer:actin monomer

B3: GFP-INF2-FFC (domain or fragment)
chain: not shown
[3]
  stoichiometry N: 2.06 molecules
[4]
  stoichiometry N: 2.17 molecules
